# No end group written: not given here. *: point of attachment. FITC = O=C1OC2(c3ccc(O)cc3Oc3cc(O)ccc32)c2ccc(NC(=S)*)cc21
# Key:
# [1] = target: T1, QP1165 after cleavage to N-terminal arginine (RVWK); assay: on-chip dynamic sequencing of QP1165, 500 nM PS1875 plus five recognizers, 3369 alignments
# T1 peptide: RVWK
# [2] = target: T1, QP1165 after cleavage to N-terminal …; assay: on-chip dynamic sequencing of QP1165, PS1875 run, trace Aperture=1353995
# [3] = target: T1, QP1165 after cleavage to N-terminal …; assay: on-chip dynamic sequencing of QP1165, PS1875 run, trace Aperture=340501
# [4] = target: T1, QP1165 after cleavage to N-terminal …; assay: on-chip dynamic sequencing of QP1165, PS1875 run, trace Aperture=430641
# [5] = target: T1, QP1165 after cleavage to N-terminal …; assay: on-chip dynamic sequencing of QP1165, PS2132 run, trace Aperture=1826247
# [6] = target: T1, QP1165 after cleavage to N-terminal …; assay: on-chip dynamic sequencing of QP1165, 500 nM PS2121 plus five recognizers, 15527 alignments
# [7] = target: T1, QP1165 after cleavage to N-terminal …; assay: on-chip dynamic sequencing of QP1165, 500 nM PS2123 plus five recognizers, 62511 alignments
# [8] = target: T1, QP1165 after cleavage to N-terminal …; assay: on-chip dynamic sequencing of QP1165, PS2132 run, trace Aperture=376215
# [9] = target: T1, QP1165 after cleavage to N-terminal …; assay: on-chip dynamic sequencing of QP1165, PS2121 run, trace Aperture=1683362
# [10] = target: T1, QP1165 after cleavage to N-terminal …; assay: on-chip dynamic sequencing of QP1165, 500 nM PS1875 plus five recognizers, 7305 alignments
# [11] = target: T1, QP1165 after cleavage to N-terminal …; assay: on-chip dynamic sequencing of QP1165, 500 nM PS2132 plus five recognizers, 36192 alignments
# [12] = target: T1, QP1165 after cleavage to N-terminal …; assay: on-chip dynamic sequencing of QP1165, PS2121 run, trace Aperture=740473
# [13] = target: T1, QP1165 after cleavage to N-terminal …; assay: on-chip dynamic sequencing of QP1165, 500 nM PS1875 plus five recognizers, 11565 alignments
# Experimental: (§1) The semiconductor chip was placed in the sequencing device and a chip check was performed to test electronic circuit function and to optimize laser coupling alignment. The chip was then removed from the device socket and the chip was washed twice with 50 μL of 70% isopropanol, followed by four washes with 30 μL of wash buffer (50 mM MOPS pH 8.0, 60 mM potassium acetate, 50 mM glucose, 20 mM magnesium acetate, and surfactant mix) through a flow cell attached to the chip. A second chip check was then performed. The laser was then blocked via an integrated software-controlled shutter, peptide complex was added to a final concentration of 1-10 nM and mixed thoroughly, and the chip was incubated for 15 min. The chip was then washed six times with wash buffer, followed by addition of an imaging solution (wash buffer with 5 mM Trolox and an oxygen scavenging system). The laser was unblocked and the occupancy percentage (target 10-30%, Poisson distributed) was recorded by acquiring a photobleaching signal from a fluorophore attached to the peptide complex during 5 min of laser illumination. […] Data was recorded for 15 min. The laser was then blocked briefly and aminopeptidases were added to the sequencing reaction via the flow cell and mixed thoroughly (final concentration 2-8 μM PhTET2 and/or 20-80 μM PhTET3, as indicated according to the experiment). The laser was then unblocked, and data was recorded for 10 hours. For all runs, 30 μL of mineral oil was added to fluid reservoirs at each port of the flow cell to prevent evaporation during the run.
# [14] = target: T1, QP1165 after cleavage to N-terminal …; assay: on-chip dynamic sequencing of QP1165, PS1875 run, trace Aperture=295010
# [15] = target: T1, QP1165 after cleavage to N-terminal …; assay: on-chip dynamic sequencing of QP1165, PS2123 run, trace Aperture=1168773
# [16] = target: T1, QP1165 after cleavage to N-terminal …; assay: on-chip dynamic sequencing of QP1165, PS1875 run, trace Aperture=1377116
# Experimental: as §1
# VA peptide [17] = target: T2, VA peptide; assay: BLI (Octet), peptide on sensor, purified protein in solution
# T2 construct: The peptide was coated on the Octet sensor; also called peptide with N-terminal valine and penultimate alanine
# Description: (§2) In the high-throughput assay, Octet sensors are coated with the peptide of interest and dipped in buffer containing the purified protein. An approximation of relative binding can be obtained by comparing the response after 200 seconds for each protein. Each protein has approximately the same molecular mass and is used at the same concentration, so ranking the proteins by response level in this assay gives an approximation of which proteins have improved binding. Studying the on and off-rate can also give insight into the mechanism of binding.
# AA peptide [18] = target: T3, AA peptide; assay: as above
# T3 construct: The peptide was coated on the Octet sensor; also called peptide with N-terminal alanine and penultimate alanine
# Description: as §2
# LA peptide [19] = target: T4, LA peptide; assay: as above
# T4 construct: The peptide was coated on the Octet sensor; also called peptide with N-terminal leucine and penultimate alanine
# Description: as §2
# VA peptide [20] = target: T2, VA peptide; assay: BLI (Octet), peptide on sensor, purified protein in solution; second row for PS829
# Description: as §2
# AA peptide [21] = target: T3, AA peptide; assay: as above
# Description: as §2
# LA peptide [22] = target: T4, LA peptide; assay: as above
# Description: as §2
# VA peptide [23] = target: T2, VA peptide; assay: BLI (Octet), peptide on sensor, purified protein in solution; second row for PS833
# Description: as §2
# AA peptide [24] = target: T3, AA peptide; assay: as above
# Description: as §2
# LA peptide [25] = target: T4, LA peptide; assay: as above
# Description: as §2
# [26] = target: T5, MA Peptide (fluorescence polarization); assay: fluorescence polarization, FITC peptide titrated with protein
# T5 peptide: MAKLDEESILKQK(FITC)
# [27] = target: VA Peptide (fluorescence polarization) (FITC on the C-terminal lysine); assay: as above
# [28] = target: T6, AA Peptide (fluorescence polarization), AAKLDEESILKQ{LYS(FITC)}; assay: as above
# T6 peptide: AAKLDEESILKQK(FITC)
# [29] = target: T7, FA peptide (Octet assay of PS557 variants); assay: Octet (BLI), peptide on sensor, response after 200 s association; second PS833 row
# T7 construct: Peptide coated on the Octet sensor
# Description: as §2
# [30] = target: T8, WA peptide (Octet assay of PS557 variants); assay: as above
# T8 construct: Peptide coated on the Octet sensor
# Description: as §2
# [31] = target: T9, IA peptide (Octet assay of PS557 variants); assay: as above
# T9 construct: Peptide coated on the Octet sensor
# Description: as §2
# [32] = target: T10, YA peptide (Octet assay of PS557 variants); assay: as above
# T10 construct: Peptide coated on the Octet sensor
# Description: as §2
# [33] = target: T11, MA peptide (Octet assay of PS557 variants); assay: as above
# T11 construct: Peptide coated on the Octet sensor
# Description: as §2
# [34] = target: T7, FA peptide (Octet assay of PS557 …); assay: Octet (BLI), peptide on sensor, response after 200 s association
# Description: as §2
# [35] = target: T8, WA peptide (Octet assay of PS557 …); assay: as above
# Description: as §2
# [36] = target: T9, IA peptide (Octet assay of PS557 …); assay: as above
# Description: as §2
# [37] = target: T10, YA peptide (Octet assay of PS557 …); assay: as above
# Description: as §2
# [38] = target: T11, MA peptide (Octet assay of PS557 …); assay: as above
# Description: as §2
binder,measurement,setting,value
"PS1220 (designed binder, also called PS1220 (R); PS1220 (4-CY3B)) single polypeptide, two PS1122 units in tandem: MHSKFSHAGRICGAKFKVGEPIYRCKECSFDDTCVLCVNCFNPKDHLGHHVYTTICTEFNNGECDCGDKTAWNHTLFCKAEEGSAGSAAGSGEFMHSKFSHAGRICGAKFKVGEPIYRCKECSFDDTCVLCVNCFNPKDHLGHHVYTTICTEFNNGECDCGDKTAWNHTLFCKAEEG",IPD (interpulse duration),[1],9.99 s
same,PD (pulse duration),[1],0.42 s
same,PD of a recognition segment in an example trace,[2],0.34 s
same,PD of a recognition segment in an example trace,[3],0.31 s
same,PD of a recognition segment in an example trace,[4],0.31 s
same,PD of a recognition segment in an example trace,[5],0.27 s
same,IPD (interpulse duration),[6],11.9 s
same,PD (pulse duration),[6],0.46 s
same,IPD (interpulse duration),[7],9.74 s
same,PD (pulse duration),[7],0.4 s
same,PD of a recognition segment in an example trace,[8],0.94 s
same,PD of a recognition segment in an example trace,[9],0.45 s
same,IPD (interpulse duration),[10],10.5 s
same,PD (pulse duration),[10],0.43 s
same,IPD (interpulse duration),[11],11.1 s
same,PD (pulse duration),[11],0.44 s
same,PD of a recognition segment in an example trace,[12],0.71 s
same,IPD (interpulse duration),[13],10.6 s
same,PD (pulse duration),[13],0.37 s
same,PD of a recognition segment in an example trace,[14],0.3 s
same,PD of a recognition segment in an example trace,[15],0.3 s
same,PD of a recognition segment in an example trace,[16],0.4 s
"PS829 (designed binder, Variant of PS557) MPTAASATESAIEDTPAPARPEVDGRTKPKRQPRYHVVLWDDDDHTYQYVVVMLQSLFGHPRERGYRLAKEMDTLGRVIVLTTTREHAELKRDQIHAFGYDRLLARSKGSMKASIEAEE",Octet response after 200 sec association,VA peptide [17],9.5 nm
same,Octet response after 200 sec association,AA peptide [18],2.5 nm
same,Octet response after 200 sec association,LA peptide [19],8.5 nm
same,Octet response after 200 sec association,VA peptide [20],11.3 nm
same,Octet response after 200 sec association,AA peptide [21],4.5 nm
same,Octet response after 200 sec association,LA peptide [22],10.9 nm
"PS833 (designed binder, Variant of PS557) MPTAASATESAIEDTPAPARPVVDGRTKPKRQPRYHVVLWDDDDHTYQYVVVMLQSLFGHPPERGYRLAKEMDTQGRVIVLTTTREHAELKRDQIHAFGYDRLLARSKGSMKASIEAEE [PS833, listing 1 of 2 here]",Octet response after 200 sec association,VA peptide [17],8.6 nm
same,Octet response after 200 sec association,AA peptide [18],1 nm
same,Octet response after 200 sec association,LA peptide [19],10.7 nm
same,Octet response after 200 sec association,VA peptide [23],10.4 nm
same,Octet response after 200 sec association,AA peptide [24],0.849 nm
same,Octet response after 200 sec association,LA peptide [25],12.4 nm
"PS833 (designed binder, Variant of PS557) MPTAASATESAIEDTPAPARPVVDGRTKPKRQPRYHVVLWDDDDHTYQYVVVMLQSLFGHPPERGYRLAKEMDTQGRVIVLTTTREHAELKRDQIHAFGYDRLLARSKGSMKASIEAEE [PS833, listing 2 of 2 here]",Kd,[26],1.04 µM
same,Kd,[27],0.312 µM
same,Kd,[28],7.08 µM
same,Octet response,[29],0.0889 nm
same,Octet response,[30],0.0006 nm
same,Octet response,[31],10.8 nm
same,Octet response,[32],0.109 nm
same,Octet response,[33],7.01 nm
same,Octet response,[34],0.0509 nm
same,Octet response,[35],0.00561 nm
same,Octet response,[36],9.26 nm
same,Octet response,[37],0.117 nm
same,Octet response,[38],5.11 nm
